The RNAGym collection of RNA variant scans (doi:10.7554/elife.90254)

B1: LINE1-full (parent)
chain: UACGUAGGUGGUUUUCCCCUGAUAGUGCUAAGGGGGCCUGGAAGUUUGGACUGGGCAGAGCUCAACACAGCGUGGCAAAGUGGCUGUGGCUAGACUGCCUCUCUGGAUUCCUCGUCACUCAGCAGGGCAUCUCUGAGAGAAAUGCC

Variants of: B1
Experiment: self-cleavage, relative activity (ratio to wild type); higher = more cleavage; in vitro, sequencing; the parent is a self-cleaving ribozyme
Work on UACGUAGGUGGUUUUCCCCUGAUAGUGCUAAGGGGGCCUGGAAGCUUGGACUGGGCAGAGCUCAACACAGCGUGGCAAAGUGGCUGUGGCUAGACUGCCUCUCUGGAUUCCUCGUCACUCAGCAGGGCAUCUCUAAGAGAAAUGCC [U45C G135A] yielded a self-cleavage of 1.28.
In the case of UACGUAGGUGGUUUUCCCCUGAUAGUGCUAAGGGGGCCUGGAAGCUUGGACUGGGCAGAGCUCAACACAGCGUGGCAAAGUGGCUGUGGCUAGACUGCCUCUCUGGAUUCCUCGUCACUCAGCAGGGCAUCUCUGAUAGAAAUGCC [U45C G137U], the self-cleavage is reported as 1.23.
For UACGUAGGUGGUUUUCCCCUGAUAGUGCUAAGGGGGCCUGGAAGCUUGGACUGGGCAGAGCUCAACACAGCGUGGCAAAGUGGCUGUGGCUAGACUGCCUCUCUGGAUUCCUCGUCACUCAGCAGGGCAUCUCUGAGACAAAUGCC [U45C G139C], the self-cleavage was 1.63.
Variant UACGUAGGUGGUUUUCCCCUGAUAGUGCUAAGGGGGCCUGGAAGCUUGGACUGGGCAGAGCUCAACACAGCGUGGCAAAGUGGCUGUGGCUAGACUGCCUCUCUGGAUUCCUCGUCACUCAGCAGGGCAUCUCUGAGAGAAAUUCC [U45C G144U] has a self-cleavage of 1.42.
UACGUAGGUGGUUUUCCCCUGAUAGUGCUAAGGGGGCCUGGAAGCUCGGACUGGGCAGAGCUCAACACAGCGUGGCAAAGUGGCUGUGGCUAGACUGCCUCUCUGGAUUCCUCGUCACUCAGCAGGGCAUCUCUGAGAGAAAUGCC [U45C U47C] gave a self-cleavage of 1.23.
With UACGUAGGUGGUUUUCCCCUGAUAGUGCUAAGGGGGCCUGGAAGCUGGGACUGGGCAGAGCUCAACACAGCGUGGCAAAGUGGCUGUGGCUAGACUGCCUCUCUGGAUUCCUCGUCACUCAGCAGGGCAUCUCUGAGAGAAAUGCC [U45C U47G] the self-cleavage was 1.09.
UACGUAGGUGGUUUUCCCCUGAUAGUGCUAAGGGGGCCUGGAAGCUUGGACAGGGCAGAGCUCAACACAGCGUGGCAAAGUGGCUGUGGCUAGACUGCCUCUCUGGAUUCCUCGUCACUCAGCAGGGCAUCUCUGAGAGAAAUGCC [U45C U52A] gave a self-cleavage of 1.33.
UACGUAGGUGGUUUUCCCCUGAUAGUGCUAAGGGGGCCUGGAAGCUUGGACUGGGCAGAGCACAACACAGCGUGGCAAAGUGGCUGUGGCUAGACUGCCUCUCUGGAUUCCUCGUCACUCAGCAGGGCAUCUCUGAGAGAAAUGCC [U45C U62A] gave a self-cleavage of 0.04.
UACGUAGGUGGUUUUCCCCUGAUAGUGCUAAGGGGGCCUGGAAGCUUGGACUGGGCAGAGCGCAACACAGCGUGGCAAAGUGGCUGUGGCUAGACUGCCUCUCUGGAUUCCUCGUCACUCAGCAGGGCAUCUCUGAGAGAAAUGCC [U45C U62G] showed a self-cleavage of 0.
With UACGUAGGUGGUUUUCCCCUGAUAGUGCUAAGGGGGCCUGGAAGCUUGGACUGGGCAGAGCUCAACACAGCGGGGCAAAGUGGCUGUGGCUAGACUGCCUCUCUGGAUUCCUCGUCACUCAGCAGGGCAUCUCUGAGAGAAAUGCC [U45C U73G] the self-cleavage was 1.22.
UACGUAGGUGGUUUUCCCCUGAUAGUGCUAAGGGGGCCUGGAAGCUUGGACUGGGCAGAGCUCAACACAGCGUGGCAAAGAGGCUGUGGCUAGACUGCCUCUCUGGAUUCCUCGUCACUCAGCAGGGCAUCUCUGAGAGAAAUGCC [U45C U81A] gave a self-cleavage of 2.03.
For UACGUAGGUGGUUUUCCCCUGAUAGUGCUAAGGGGGCCUGGAAGCUUGGACUGGGCAGAGCUCAACACAGCGUGGCAAAGUGGCCGUGGCUAGACUGCCUCUCUGGAUUCCUCGUCACUCAGCAGGGCAUCUCUGAGAGAAAUGCC [U45C U85C], the self-cleavage was 0.17.
With UACGUAGGUGGUUUUCCCCUGAUAGUGCUAAGGGGGCCUGGAAGCUUGGACUGGGCAGAGCUCAACACAGCGUGGCAAAGUGGCUGAGGCUAGACUGCCUCUCUGGAUUCCUCGUCACUCAGCAGGGCAUCUCUGAGAGAAAUGCC [U45C U87A] the self-cleavage was 0.09.
UACGUAGGUGGUUUUCCCCUGAUAGUGCUAAGGGGGCCUGGAAGCUUGGACUGGGCAGAGCUCAACACAGCGUGGCAAAGUGGCUGCGGCUAGACUGCCUCUCUGGAUUCCUCGUCACUCAGCAGGGCAUCUCUGAGAGAAAUGCC [U45C U87C] showed a self-cleavage of 0.23.
With UACGUAGGUGGUUUUCCCCUGAUAGUGCUAAGGGGGCCUGGAAGCUUGGACUGGGCAGAGCUCAACACAGCGUGGCAAAGUGGCUGUGGCAAGACUGCCUCUCUGGAUUCCUCGUCACUCAGCAGGGCAUCUCUGAGAGAAAUGCC [U45C U91A] the self-cleavage was 0.55.
In the case of UACGUAGGUGGUUUUCCCCUGAUAGUGCUAAGGGGGCCUGGAAGCUUGGACUGGGCAGAGCUCAACACAGCGUGGCAAAGUGGCUGUGGCCAGACUGCCUCUCUGGAUUCCUCGUCACUCAGCAGGGCAUCUCUGAGAGAAAUGCC [U45C U91C], the self-cleavage is reported as 0.69.
For UACGUAGGUGGUUUUCCCCUGAUAGUGCUAAGGGGGCCUGGAAGCUUGGACUGGGCAGAGCUCAACACAGCGUGGCAAAGUGGCUGUGGCGAGACUGCCUCUCUGGAUUCCUCGUCACUCAGCAGGGCAUCUCUGAGAGAAAUGCC [U45C U91G], the self-cleavage was 0.
For UACGUAGGUGGUUUUCCCCUGAUAGUGCUAAGGGGGCCUGGAAGCUUGGACUGGGCAGAGCUCAACACAGCGUGGCAAAGUGGCUGUGGCUAGACCGCCUCUCUGGAUUCCUCGUCACUCAGCAGGGCAUCUCUGAGAGAAAUGCC [U45C U96C], the self-cleavage was 0.12.
For UACGUAGGUGGUUUUCCCCUGAUAGUGCUAAGGGGGCCUGGAAGCUUGGACUGGGCAGAGCUCAACACAGCGUGGCAAAGUGGCUGUGGCUAGACUGCCUCUCAGGAUUCCUCGUCACUCAGCAGGGCAUCUCUGAGAGAAAUGCC [U45C U104A], the self-cleavage was 1.43.
In the case of UACGUAGGUGGUUUUCCCCUGAUAGUGCUAAGGGGGCCUGGAAGCUUGGACUGGGCAGAGCUCAACACAGCGUGGCAAAGUGGCUGUGGCUAGACUGCCUCUCUGGAUCCCUCGUCACUCAGCAGGGCAUCUCUGAGAGAAAUGCC [U45C U109C], the self-cleavage is reported as 0.61.
In the case of UACGUAGGUGGUUUUCCCCUGAUAGUGCUAAGGGGGCCUGGAAGCUUGGACUGGGCAGAGCUCAACACAGCGUGGCAAAGUGGCUGUGGCUAGACUGCCUCUCUGGAUUCCCCGUCACUCAGCAGGGCAUCUCUGAGAGAAAUGCC [U45C U112C], the self-cleavage is reported as 1.27.
UACGUAGGUGGUUUUCCCCUGAUAGUGCUAAGGGGGCCUGGAAGCUUGGACUGGGCAGAGCUCAACACAGCGUGGCAAAGUGGCUGUGGCUAGACUGCCUCUCUGGAUUCCUCGCCACUCAGCAGGGCAUCUCUGAGAGAAAUGCC [U45C U115C] gave a self-cleavage of 2.14.
Variant UACGUAGGUGGUUUUCCCCUGAUAGUGCUAAGGGGGCCUGGAAGCUUGGACUGGGCAGAGCUCAACACAGCGUGGCAAAGUGGCUGUGGCUAGACUGCCUCUCUGGAUUCCUCGGCACUCAGCAGGGCAUCUCUGAGAGAAAUGCC [U45C U115G] has a self-cleavage of 2.1.
UACGUAGGUGGUUUUCCCCUGAUAGUGCUAAGGGGGCCUGGAAGCUUGGACUGGGCAGAGCUCAACACAGCGUGGCAAAGUGGCUGUGGCUAGACUGCCUCUCUGGAUUCCUCGUCACACAGCAGGGCAUCUCUGAGAGAAAUGCC [U45C U119A] gave a self-cleavage of 1.3.
Work on UACGUAGGUGGUUUUCCCCUGAUAGUGCUAAGGGGGCCUGGAAGCUUGGACUGGGCAGAGCUCAACACAGCGUGGCAAAGUGGCUGUGGCUAGACUGCCUCUCUGGAUUCCUCGUCACCCAGCAGGGCAUCUCUGAGAGAAAUGCC [U45C U119C] yielded a self-cleavage of 2.12.
UACGUAGGUGGUUUUCCCCUGAUAGUGCUAAGGGGGCCUGGAAGCUUGGACUGGGCAGAGCUCAACACAGCGUGGCAAAGUGGCUGUGGCUAGACUGCCUCUCUGGAUUCCUCGUCACUCAGCAGGGCAACUCUGAGAGAAAUGCC [U45C U130A] gave a self-cleavage of 1.66.
With UACGUAGGUGGUUUUCCCCUGAUAGUGCUAAGGGGGCCUGGAAGCUUGGACUGGGCAGAGCUCAACACAGCGUGGCAAAGUGGCUGUGGCUAGACUGCCUCUCUGGAUUCCUCGUCACUCAGCAGGGCACCUCUGAGAGAAAUGCC [U45C U130C] the self-cleavage was 1.39.
In the case of UACGUAGGUGGUUUUCCCCUGAUAGUGCUAAGGGGGCCUGGAAGCUUGGACUGGGCAGAGCUCAACACAGCGUGGCAAAGUGGCUGUGGCUAGACUGCCUCUCUGGAUUCCUCGUCACUCAGCAGGGCAGCUCUGAGAGAAAUGCC [U45C U130G], the self-cleavage is reported as 1.9.
For UACGUAGGUGGUUUUCCCCUGAUAGUGCUAAGGGGGCCUGGAAGCUUGGACUGGGCAGAGCUCAACACAGCGUGGCAAAGUGGCUGUGGCUAGACUGCCUCUCUGGAUUCCUCGUCACUCAGCAGGGCAUCGCUGAGAGAAAUGCC [U45C U132G], the self-cleavage was 1.33.
Variant UACGUAGGUGGUUUUCCCCUGAUAGUGCUAAGGGGGCCUGGAAGCUUGGACUGGGCAGAGCUCAACACAGCGUGGCAAAGUGGCUGUGGCUAGACUGCCUCUCUGGAUUCCUCGUCACUCAGCAGGGCAUCUCAGAGAGAAAUGCC [U45C U134A] has a self-cleavage of 1.6.
UACGUAGGUGGUUUUCCCCUGAUAGUGCUAAGGGGGCCUGGAAGCUUGGACUGGGCAGAGCUCAACACAGCGUGGCAAAGUGGCUGUGGCUAGACUGCCUCUCUGGAUUCCUCGUCACUCAGCAGGGCAUCUCCGAGAGAAAUGCC [U45C U134C] showed a self-cleavage of 1.47.
In the case of UACGUAGGUGGUUUUCCCCUGAUAGUGCUAAGGGGGCCUGGAAGCUUGGACUGGGCAGAGCUCAACACAGCGUGGCAAAGUGGCUGUGGCUAGACUGCCUCUCUGGAUUCCUCGUCACUCAGCAGGGCAUCUCGGAGAGAAAUGCC [U45C U134G], the self-cleavage is reported as 1.22.
For UACGUAGGUGGUUUUCCCCUGAUAGUGCUAAGGGGGCCUGGAAGGUUGGACUGGGCAGAGCUCAACACAGCGUGGCAAAGUGGCUGUGGCUAGACUGCCUCUCUGGAUUCCUCGUCACUCAGCAGGGCAUCUCUGAGAGAAAUGCC [U45G], the self-cleavage was 1.18.
Variant UACGUAGGUGGUUUUCCCCUGAUAGUGCUAAGGGGGCCUGGAAGGUUGGGCUGGGCAGAGCUCAACACAGCGUGGCAAAGUGGCUGUGGCUAGACUGCCUCUCUGGAUUCCUCGUCACUCAGCAGGGCAUCUCUGAGAGAAAUGCC [U45G A50G] has a self-cleavage of 0.89.
Work on UACGUAGGUGGUUUUCCCCUGAUAGUGCUAAGGGGGCCUGGAAGGUUGGACUGGGCGGAGCUCAACACAGCGUGGCAAAGUGGCUGUGGCUAGACUGCCUCUCUGGAUUCCUCGUCACUCAGCAGGGCAUCUCUGAGAGAAAUGCC [U45G A57G] yielded a self-cleavage of 0.9.
Variant UACGUAGGUGGUUUUCCCCUGAUAGUGCUAAGGGGGCCUGGAAGGUUGGACUGGGCAGGGCUCAACACAGCGUGGCAAAGUGGCUGUGGCUAGACUGCCUCUCUGGAUUCCUCGUCACUCAGCAGGGCAUCUCUGAGAGAAAUGCC [U45G A59G] has a self-cleavage of 0.
UACGUAGGUGGUUUUCCCCUGAUAGUGCUAAGGGGGCCUGGAAGGUUGGACUGGGCAGAGCUCGACACAGCGUGGCAAAGUGGCUGUGGCUAGACUGCCUCUCUGGAUUCCUCGUCACUCAGCAGGGCAUCUCUGAGAGAAAUGCC [U45G A64G] gave a self-cleavage of 0.24.
Work on UACGUAGGUGGUUUUCCCCUGAUAGUGCUAAGGGGGCCUGGAAGGUUGGACUGGGCAGAGCUCAACACAGCGUGGCAGAGUGGCUGUGGCUAGACUGCCUCUCUGGAUUCCUCGUCACUCAGCAGGGCAUCUCUGAGAGAAAUGCC [U45G A78G] yielded a self-cleavage of 1.13.
Variant UACGUAGGUGGUUUUCCCCUGAUAGUGCUAAGGGGGCCUGGAAGGUUGGACUGGGCAGAGCUCAACACAGCGUGGCAAAGUGGCUGUGGCUUGACUGCCUCUCUGGAUUCCUCGUCACUCAGCAGGGCAUCUCUGAGAGAAAUGCC [U45G A92U] has a self-cleavage of 0.61.
